Source: patent US12357670B2, “Topical cream-based cosmetic and wound healing formulations and methods of use” (Eir Pharmaceuticals, LLC, priority 2018, dated 2025)

Key:
[1] = Stability of protein in the cream-based formulation (SDS-PAGE); type: physicochemical; details: in the cream formulations, stored at room temperature
Procedure: Stability is a major issue in incorporating recombinant proteins as active ingredients into a commercial product. […] Samples were then prepared for analysis and loaded onto an SDS-PAGE gel.
The samples were: Lane 1 contains TRIM Family Member protein that was stored in Phosphate Buffered Saline (PBS) at 4° C. for 13 months. Lane 2-4 are samples of the cream-based formulation containing the TRIM Family Member protein. The arrows indicate the band corresponding to the molecular weight of TRIM Family Member protein in each of the samples in Lanes 2-4. […] This is indicated by the lack of doublet bands in the cream samples. Thus, these formulations for the Emulsifier and Hydrogel are viable systems to maintain the activity of the active ingredient.

[2] = Isoelectric point / net charge of TRIM family member; type: physicochemical

## TRIM Family Member protein: TRIM-family member protein, MG53, active ingredient of the cream
[1]
  activity of the active ingredient on storage: remains active for over one year
[2]
  isoelectric point: 6.08
[2]; physiological pH of blood (7.35)
  net charge: negative
